Laboratory results taken from patent US20200095338A1.

Biological target: IL-4R (interleukin-4 receptor) (UniProt P24394)
Assay: cell-based or functional assay

Sequence of UniProt P24394 (P24394 26-825 limits assumed): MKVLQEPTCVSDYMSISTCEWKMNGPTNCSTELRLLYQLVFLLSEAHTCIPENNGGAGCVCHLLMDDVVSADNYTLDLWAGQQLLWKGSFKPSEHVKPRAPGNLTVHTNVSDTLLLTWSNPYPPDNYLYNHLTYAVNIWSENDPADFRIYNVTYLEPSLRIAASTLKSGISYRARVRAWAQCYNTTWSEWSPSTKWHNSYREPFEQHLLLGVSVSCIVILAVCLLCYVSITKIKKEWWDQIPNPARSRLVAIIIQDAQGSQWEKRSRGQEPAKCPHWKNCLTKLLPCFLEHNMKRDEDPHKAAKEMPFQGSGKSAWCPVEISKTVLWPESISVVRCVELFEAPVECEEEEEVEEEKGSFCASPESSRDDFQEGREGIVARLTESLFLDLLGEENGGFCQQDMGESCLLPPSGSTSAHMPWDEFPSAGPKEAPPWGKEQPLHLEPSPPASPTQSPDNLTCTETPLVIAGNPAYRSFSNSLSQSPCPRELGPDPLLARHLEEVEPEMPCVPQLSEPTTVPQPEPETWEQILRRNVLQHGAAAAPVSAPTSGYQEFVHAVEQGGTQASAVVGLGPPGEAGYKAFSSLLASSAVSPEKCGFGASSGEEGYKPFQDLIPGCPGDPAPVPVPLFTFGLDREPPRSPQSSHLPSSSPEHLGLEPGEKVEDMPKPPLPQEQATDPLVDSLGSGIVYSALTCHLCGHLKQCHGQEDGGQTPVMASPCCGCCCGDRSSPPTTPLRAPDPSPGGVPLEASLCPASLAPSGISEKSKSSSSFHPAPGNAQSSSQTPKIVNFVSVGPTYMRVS

attenuation of IL-4R activity relative to the control constructs: > 10%
B1: anti-IL-4R:anti-CD63 conjugate (streptavidin-conjugated anti-IL-4R antibody combined 1:1 with biotinylated anti-CD63 antibody MEM-259) (bispecific antibody, part only; not given: anti-CD63 MEM-259 antibody, constant regions, V domains shown, part only)
VH: EVQLVESGGGVVQPGRSLRLSCVASGFTFSDYGMHWVRQAPGKGLEWVAVIWYDGSIKYFRDSVKGRFTISRDNSKNTLYLQMNSLRVEDTAHYYCAKESSSWYFYHGLDVWGQGTMVTVSS
VL: EIVMTQSPLSLPVSPGEPASISCRSNQSLLHSNGNNYLAWYLQKPGQSPHLLIYLGSNRASGVPDRFSGSGSGTDFTLKISRVEAGDVGTYFCMQSLQAPPFTFGPGTKVEIKR
modifications: antibody conjugated to streptavidin
